These results are taken from patent US20220119517A1 (NANJING SANHOME PHARMACEUTICAL, published 2022).

Where a chain is given by its changes, count along the chain named.

For experiment [1], the target named is T1, human Claudin18.2 (CLDN18.2), full length, on cells (human).
T1 construct: also called CLDN18.2-FL; HEK293-CLDN18.2 cells
The experiment is described as follows: cellular ELISA on fixed HEK293-CLDN18.2 cells. As to the method:
(§1) HEK293-CLDN18.1 and HEK293-CLDN18.2 cells were resuscitated two weeks in advance, cultured with DMEM complete culture medium containing 10% fetal bovine serum at 37° C., 5% CO₂. When the cells grew to 80%-90% confluency, they were digested with 0.5 mM EDTA-PBS (Sigma) at room temperature, centrifuged at 1000 rpm for 5 minutes, the supernatant was discarded. Cells were resuspended in DMEM complete culture medium, the cell concentration was adjusted to 6×10⁵ cells/ml. Cells were plated on 96-well cell plates (Corning) pre-coated with polylysine at 2.5 μg/well, 100 μl per well, incubated at 37° C., 5% CO₂ for 24 hours, making cells evenly and completely plated on the bottom of the well. The supernatant was aspirated, and the cells were fixed with 4% paraformaldehyde at room temperature for 20 minutes, washed 3 times with 200 μl PBS, 2 minutes at each time. The well plates were blocked with 200 μl of 3% BSA-PBS at 37° C. for 1 hour. Each chimeric antibody was diluted with 3% BSA-PBS to a concentration of 6 μg/ml, and diluted in a 6-fold gradient to a total of 7 concentrations. At the same time, IMAB362-similar-hG1 diluted in the same concentration gradient as the positive control, and human IgG1, kappa isotype control antibody (hereinafter referred to as Isotype, provided by CrownBio (Taicang) Co., Ltd.) as the negative control were added to HEK293-CLDN18.2 and HEK293-CLDN18.1 cell plates, respectively. The cells were incubated at 37° C. for 1 hour, washed 5 times with PBS. Incubation with HRP-anti human IgG (Jackson) diluted 1:10000 in blocking solution was performed at 37° C. for 1 hour followed by washing 5 times with PBS. 100 μl of TMB one-component color developing solution was added, protected from light at room temperature for 5-10 minutes, terminated with 50 μl of 2M sulfuric acid, OD450 was read on the microplate reader. Data processing: the original data was put into GraphPad 5.0 software for plotting and calculation.
A general note: ELISA stands for enzyme-linked immunosorbent assay.

Experiment [2] addresses T2, human Claudin18.1 (CLDN18.1), full length, on cells (human, UniProt P56856 1-261).
T2 construct: HEK293-CLDN18.1 cells carry a fusion with green fluorescent protein (ZsGreen); CHO-K1-CLDN18.1 cells carry pcDNA3.1-CLDN18.1; The cell line is named under assay; also called CLDN18.1-FL; HEK293-CLDN18.1 cells
Description: cellular ELISA on fixed HEK293-CLDN18.1 cells, HRP-anti human IgG, OD450. As to the method: as §1

Experiment [3] deals with T2, human Claudin18.1 (CLDN18.1), full …. The experiment is described as follows: cellular ELISA, hybridoma supernatant on fixed HEK293-CLDN18.1 cells. As to the method:
(§2) HEK293-CLDN18.1 and HEK293-CLDN18.2 cells were cultured separately with DMEM complete culture medium containing 10% fetal bovine serum at 37° C., 5% CO₂. When the cells grew to 80%-90% confluency, they were digested with 0.5 mM EDTA-PBS non-trypsin digestion solution at room temperature, and centrifuged at 1000 rpm for 5 minutes, the supernatant was discarded. Resuspended in DMEM complete culture medium, and the cell concentration was adjusted to 6×10⁵ cells/ml. Cells were plated on 96-well cell plates (Corning) pre-coated with polylysine, 100 μl per well, incubated at 37° C., 5% CO₂ for 24 hours, making cells evenly and completely plated on the bottom of the well. The culture supernatant was aspirated, and the cells were fixed with 4% paraformaldehyde at room temperature for 20 minutes, washed 3 times with 200 μl PBS, 2 minutes at each time. The well plates were blocked with 200 μl of 3% BSA-PBS at 37° C. for 1 hour. […] of subclone culture supernatant was taken and added into the well plate, incubated at 37° C. for 1 hour, washed 5 times with PBS. Incubation with HRP-anti mouse IgG+IgM (Jackson) diluted 1:10000 in blocking solution was performed at 37° C. for 1 hour followed by washing 5 times with PBS. 100 μl of TMB one-component color developing solution was added, protected from light at room temperature for 5-10 minutes, terminated with 2M sulfuric acid, and OD450 was read on the microplate reader. The results are shown in Table 3, subclones of which the hybridoma culture supernatant show strong positive binding to CLDN18.2 (that is, the OD value is 50% higher than the OD value of the positive control) include: S3F10C5, S5H3A6, S5H3B6, S5H3D6, S6F10E7, S6H9B8, S6H9C8, C40B10D9, C42B12D10 and C58B11E11. Among these subclones, S5H3A6, S5H3B6, S5H3D6, C40B10D9, C42B12D10 and C58B11E11 show negative binding to CLDN18.1 cells.

For experiment [4], the target named is T1, human Claudin18.2 (CLDN18.2), full …. Description: cellular ELISA, hybridoma supernatant on fixed HEK293-CLDN18.2 cells. As to the method:
as §2

Experiment [5] addresses T2, human Claudin18.1 (CLDN18.1), full …. The experiment is described as follows: FACS on CHO-K1-CLDN18.1 cells, PE-anti human Fc, MFI. As to the method:
(§3) CHO-K1-CLDN18.2 cells and CHO-K1-CLDN18.1 cells (prepared in Example 5) were digested with gastric cancer cell digestion solution at 37° C. for 15 minutes, respectively; terminated with complete culture medium, centrifuged at 1000 rpm for 5 minutes, the supernatant was discarded; the cells were resuspended with 2% fetal bovine serum-PBS diluent, the cells were adjusted to 1×10⁶ cells/ml, 100 μl of cell suspension was added to each well of the 96-well U-shaped-bottom plate; 2% fetal bovine serum-PBS was used to dilute the humanized antibody and the control antibody to final concentrations of 10 μg/ml, 2 μg/ml, 0.4 μg/ml, 0.08 μg/ml and 0.016 μg/ml, respectively, mixed well with the cells in equal volume, incubated at 4° C. for 1 hour; centrifuged at 1000 rpm for 5 minutes, the supernatant was discarded; 200 μl Cell Stain Buffer (Biolegend) was added to each well to wash twice, centrifuged at 1000 rpm for 5 minutes at each time and the supernatant was discarded; 100 μl of PE-anti human Fc antibody (Biolegend) was added, incubated at 4° C. for 1 hour; washed with Cell Stain Buffer (Biolegend) twice, centrifuged at 1000 rpm for 5 minutes at each time and the supernatant was discarded. 300 μl Cell Stain Buffer was added to resuspend the cells, and detected by BD FACS Jazz flow cytometry analyzer.

For experiment [6], the target named is T1, human Claudin18.2 (CLDN18.2), full …. Description: FACS on CHO-K1-CLDN18.2 cells, PE-anti human Fc, MFI. As to the method: as §3
Experiment [7] deals with T2, human Claudin18.1 (CLDN18.1), full …. The experiment is described as follows: FACS on CHO-K1-CLDN18.1 cells. The text has this: Human gastric cancer cells NUGC4 and stably transfected cells CHO-K1-CLDN18.1 (prepared in Example 5) were used respectively, to verify the specificity and affinity of the anti-CLDN18.2 antibodies above at the cellular level by FAGS technology. After antibody affinity maturation and screening in vitro, each antibody can bind to the CLDN18.2 target on NUGC4 cells, but not to CHO-K1-CLDN18.1 cells, as compared with the original 3CHI antibody.

B1: 18CHI (antibody, V domains shown)
VH: QVQLKESGPGLVAPSQSLSITCTVSGFSLTSYGVSWVRQPPGKGLEWLGVIWGDGSTNYHSALISRLSISKDNSKSQVFLKLNSLQTDDTATYYCAGGLRLWFAYWGQGTLVTVSA
VL: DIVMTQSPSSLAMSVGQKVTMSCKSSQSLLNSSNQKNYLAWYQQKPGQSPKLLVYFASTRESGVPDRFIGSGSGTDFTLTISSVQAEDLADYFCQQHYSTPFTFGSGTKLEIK
notes: Human-murine chimeric antibody with the constant region of human IgG1; also called chimeric antibody of C40B10D9
For orientation: EC50 means the concentration needed to bring the measured effect to its halfway point. Read a low EC50 as an effect from little substance. In experiment [1], B1 registered an EC50 of 1.75 nM. In addition, the binding result in experiment [2] is reported as “no binding (tested: 6000 ng/ml)”.

B2: C40B10D9 (antibody, mouse IgM, V domains shown)
VH: B1 VH
VL: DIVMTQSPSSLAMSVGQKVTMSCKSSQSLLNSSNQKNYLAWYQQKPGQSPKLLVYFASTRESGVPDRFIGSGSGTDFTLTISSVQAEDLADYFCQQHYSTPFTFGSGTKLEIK
notes: Hybridoma supernatant antibody; murine IgM, kappa; also called subclone C40B10D9
Consider B2, for which, in experiment [3], the OD450 was found to be 0.114 OD and the binding result is on record as “no binding”. In addition, the OD450 in experiment [4] came to 0.664 OD.

B3: B4B10G3 (antibody, V domains shown)
VH: QIQLVQSGPELKKPGETVKISCKASGYTFTNYGMNWVKQAPGKGLKWMGWINTYTGEPTYADDFKGRFAFSLETSASTAYLQINNLKNEDMATYFCARDGQLGLRFAYWGQGTLVTVSA
VL: NIMMTQSPSSLAVSAGEKVTMSCKSSQSVLYSSNQKNYLAWYQQKPGQSPKLLIYWASTRESGVPDRFTGSGSGTDFTLTISSVQAEDLAVYYCHQYLSSRTFGGGTKLEIK
notes: Hybridoma supernatant antibody; murine IgG2b, kappa; also called subclone B4B10G3
As to B3, the OD450 in experiment [3] was 0.2 OD; in experiment [4], 0.343 OD.

B4: S6H9B8 (antibody, mouse IgG3, V domains shown)
VH: QVQLQQSGAELARPGASVKLSCKASGYTFTSYGISWVKQRTGQGLEWIGEIYPRSGNTYYNEKFKGKATLTADKSSSTAYMELRSLTSEDSAVYFCASLAWFAYWGQGTLVTVSA
VL: DIVMTQAAPSVPVTPGESVSISCRSSKSLLHSNGNTYLYWFLQRPGQSPQLLIYRMSNLASGVPDRFSGSGSGTAFTLRISRVEAEDVGVYYCMQHLEYPYTFGGGTKLEIK
notes: Hybridoma supernatant antibody; murine IgG3, kappa; also called subclone S6H9B8
In the case of B4, the OD450 in experiment [3] was 1.5 OD; in experiment [4] it was 2.35 OD.

B5: Hu330-3 (antibody, V domains shown)
VH: EVQLLESGGGLVQPGGSLRLSCAASGFGFSDYGMAWVRQAPGKGLEWVSFISNSAYSIYYADTVTGRFTISRDNSKNTLYLQMNSLRAEDTAVYYCARLGRGNSFAYWGQGTLVTVSS
VL: DIVMTQSPDSLAVSLGERATINCKSSQSLLNSGNQKNYLTWYQQKPGQPPKLLIYWGSTRESGVPDRFSGSGSGTDFTLTISSLQAEDVAVYYCQNELFYPLTFGQGTKLEIK
notes: Humanized full antibody; also called humanized antibody Hu330-3
Turning to B5, the binding result in experiment [5] is given as “no binding”; in experiment [6], “binds”.

B6: Hu330-5 (antibody, V domains shown)
VH: B5 VH with L5V, S75A, T78S
VL: DIVMTQSPLSLPVTLGQPASISCKSSQSLLNSGNQKNYLTWYQQRPGQSPRLLIYWGSTRESGVPDRFSGSGSGTDFTLKISRVEAEDVGVYYCQNELFYPLTFGQGTKLEIK
notes: Humanized full antibody; also called humanized antibody Hu330-5
As usually defined, the EC50 (read off the curve) is the midpoint of the concentration-response curve. Low readings indicate greater potency, high ones weaker potency. As to B6, the binding result in experiment [5] was “no binding”. In addition, the “EC50 (read off the curve)” value in experiment [6] was roughly 0.2 µg/mL.

B7: Hu330-6 (antibody, V domains shown)
VH: B5 VH
VL: B6 VL
notes: Humanized full antibody; also called humanized antibody Hu330-6
As to B7, the binding result in experiment [5] was “no binding”. The “EC50 (read off the curve)” value in experiment [6] was roughly 0.2 µg/mL.

B8: S5H3B6 (antibody, mouse IgM, V domains shown)
VH: EVKLVESGGGLVQPGGSLKLSCAASGFTFSDYGMAWVRQAPRKGPEWVAFISNLAYSIYYADTVTGRFTISRENAKNTLYLEMSSLRSEDTAMYYCARLGYGNSFAYWGQGTLVTVSA
VL: DIVMTQSPSSLTVTAGEKVTMSCKSSQSLLNSGNQKNYLTWYQQKPGQPPKLLIYWASTRESGVPDRFTGSGSGTDFTLTISSVQAEDLAVYYCQNDYSYPLTFGAGTKLELK
notes: Hybridoma supernatant antibody; murine IgM, kappa; also called subclone S5H3B6
In the case of B8, in experiment [3], the OD450 stood at 0.152 OD and the binding result was “no binding”. The OD450 in experiment [4] is 1.38 OD.

B9: C42B12D10 (antibody, mouse IgM, V domains shown)
VH: QVQLQQSGAELVKPGASVKMSCKASGYTFTTYPIEWMKQNHGKSLEWIGNFHPYNDDTKYNEKFKGKATLTVEKSSSTVYLELSRLTSDDSAVYYCARRGYGSSYAMDYWGQGTSVTVSS
VL: B8 VL with T12S, T14S, T40A, W56G, Y98H, L102Y, A106G, L112I
notes: Hybridoma supernatant antibody; murine IgM, kappa; also called subclone C42B12D10
Consider B9, for which, in experiment [4], the OD450 was found to be 0.76 OD.

B10: 19CHI (antibody, V domains shown)
VH: B9 VH
VL: B8 VL with T12S, T14S, T40A, W56G, Y98H, L102Y, A106G, L112I
notes: Human-murine chimeric antibody with the constant region of human IgG1; also called chimeric antibody of C42B12D10
In turn, B10 came in with an EC50 in experiment [1] of 29.9 nM. That is a double-digit nanomolar value.

B11: 17CHI (antibody, V domains shown)
VH: EVQLQQSGPELVKPGASVKMSCKASGYTFTDYNMHWVKQSHGKSLEWIGYINPNNGGTSYNQKFKGKATLTVNKSSSTAYMELRSLTSEDSAVYYCARIYYGNSFAYWGQGTLVTVSA
VL: B8 VL with L102F, A106S, L112I
notes: Human-murine chimeric antibody with the constant region of human IgG1; also called chimeric antibody of C58B11E11
In experiment [1], B11 registered a concentration giving a half-maximal response (EC50) of 2.44 nM. Also, in experiment [7], the “MFI (CLDN18.1)” value was 14500 MFI.

B12: C58B11E11 (antibody, mouse IgG2c, V domains shown)
VH: B11 VH
VL: B8 VL with L102F, A106S, L112I
notes: Hybridoma supernatant antibody; murine IgG2c, kappa; also called subclone C58B11E11
B12: the OD450 in experiment [4] was found to be 0.671 OD.
